The target of the test is T1, SipD 127-343, as it stands in the PrgI-SipDΔD1 fusion protein (S. enterica serovar typhimurium strain …, UniProt Q56026 127-343).
T1 construct: SipD of S. enterica serovar typhimurium strain SL1344, amino acids 127 to 343; In the crystal it is joined on one chain, C-terminal of PrgI and the linker Gly-Gly-Ser-Gly-Gly; also called SipDΔD1 (in the fusion); source: E. coli BL21(DE3), purified as part of the PrgI-SipDΔD1 fusion protein
T1 sequence: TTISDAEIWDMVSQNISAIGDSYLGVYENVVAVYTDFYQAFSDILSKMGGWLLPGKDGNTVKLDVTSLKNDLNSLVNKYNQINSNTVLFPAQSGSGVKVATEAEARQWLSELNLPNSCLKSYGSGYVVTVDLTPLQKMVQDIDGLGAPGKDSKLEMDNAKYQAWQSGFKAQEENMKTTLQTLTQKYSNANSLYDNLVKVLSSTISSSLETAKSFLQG
Kind of test: crystal structure; PrgI-SipDΔD1 fusion protein, X-ray, 2.4 Å apo and 2.19 Å soaked with deoxycholate; two copies in the asymmetric unit. As to conditions: both partners purified.

B1: PrgI, wildtype, as it stands in the PrgI-SipDΔD1 fusion protein (natural protein)
chain: MATPWSGYLDDVSAKFDTGVDNLQTQVTEALDKLAAKPSDPALLAAYQSKLSEYNLYRNAQSNTVKVFKDIDAAIIQNFR
notes: wildtype PrgI of S. enterica serovar typhimurium strain SL1344; In the crystal it is joined on one chain through Gly-Gly-Ser-Gly-Gly to SipD 127-343; also called needle subunit PrgI; source: E. coli BL21(DE3), purified as part of the PrgI-SipDΔD1 fusion protein; not shown: His-tag, N-terminal, cleaved
For B1, the binding result is “binds”.

For the origin of these results see PMC3150277, “Crystal Structure of PrgI-SipD: Insight into a Secretion Competent State of the Type Three Secretion System Needle Tip and its Interaction with Host Ligands” (PLoS Pathogens, 2011).
